Literature values, collected in article PMC9739296.

Target: DR4 (Homo sapiens) (UniProt O00220)
Sequence of UniProt O00220 (O00220 24-468): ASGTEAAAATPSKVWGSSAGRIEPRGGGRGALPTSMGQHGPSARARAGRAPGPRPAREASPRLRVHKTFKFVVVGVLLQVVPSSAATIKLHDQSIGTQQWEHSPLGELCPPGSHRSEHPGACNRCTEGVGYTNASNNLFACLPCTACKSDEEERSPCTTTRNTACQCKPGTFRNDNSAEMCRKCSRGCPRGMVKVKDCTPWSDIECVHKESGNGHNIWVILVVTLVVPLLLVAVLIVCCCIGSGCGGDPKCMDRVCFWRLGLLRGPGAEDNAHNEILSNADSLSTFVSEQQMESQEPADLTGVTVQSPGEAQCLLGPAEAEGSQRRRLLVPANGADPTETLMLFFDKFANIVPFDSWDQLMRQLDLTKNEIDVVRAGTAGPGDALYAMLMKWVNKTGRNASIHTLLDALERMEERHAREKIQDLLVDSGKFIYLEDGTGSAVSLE

Kd: 70 nM
Substance: TRAIL (from UniProt P50591)
